One experiment has as its target CAPRIN1 (human) (UniProt Q14444). Kind of experiment: IgG control IP from lysate of cells overexpressing N-FLAG B3GNT2, then mass spectrometry.
A further experiment addresses TIMP3 (human) (UniProt P35625). The experiment is described as above.
For the next experiment, the target named is SUPT16H (human) (UniProt Q9Y5B9). The description is as above.
A further experiment concerns the target CPSF6 (human) (UniProt Q16630). The experiment is described as above.
For a further experiment, the target named is CASC3 (human) (UniProt O15234). The description is as above.
Another experiment has as its target TCP1 (human) (UniProt P17987). The experiment is described as above.
The target in a further experiment is TAF15 (human) (UniProt Q92804). The description is as above.
Another experiment deals with SRP14 (human) (UniProt P37108). Described as above.
The next experiment addresses KHDRBS1 (human) (UniProt Q07666). The experiment is described as above.
Another experiment addresses VIM (human) (UniProt P08670). The description is as above.
The next experiment addresses PABPC1 (human) (UniProt P11940). The experiment is described as above.
A further experiment deals with TFAM (human) (UniProt Q00059). The experiment is described as above.
A further experiment deals with MAGED2 (human) (UniProt Q9UNF1). The experiment is described as above.
The next experiment has as its target CASP14 (human) (UniProt P31944). Kind of experiment: co-IP/MS, anti-FLAG IP of N-FLAG B3GNT2 cell lysate.
The target of another experiment is ERLIN1 (human) (UniProt O75477). The description is as above.
The target of another experiment is PCBP1 (human) (UniProt Q15365). The experiment is described as above.
The target in another experiment is CALU (human) (UniProt O43852). Described as above.
The next experiment addresses CAPZA1 (human) (UniProt P52907). The experiment is described as above.
Another experiment addresses PDIA6 (human) (UniProt Q15084). The description is as above.
The next experiment addresses SQSTM1 (human) (UniProt Q13501). The description is as above.
The target of a further experiment is LRP1 (human) (UniProt Q07954). Described as above.
In another experiment the target is RPS12 (human) (UniProt P25398). The experiment is described as above.
A further experiment deals with TUBB (human) (UniProt P07437). The experiment is described as above.
A further experiment addresses FAM3C (human) (UniProt Q92520). Described as above.
A further experiment concerns the target RCN2 (human) (UniProt Q14257). The description is as above.
A further experiment addresses RPL12 (human) (UniProt P30050). The experiment is described as above.
Another experiment deals with ERLIN2 (human) (UniProt O94905). The description is as above.
Another experiment deals with UQCRC2 (human) (UniProt P22695). Described as above.
A further experiment deals with RPLPO (human) (UniProt P05388). The description is as above.
In another experiment the target is ATP1A1 (human) (UniProt P05023). The experiment is described as above.
The next experiment concerns the target RPS7 (human) (UniProt P62081). The description is as above.
A further experiment concerns the target DNAJA1 (human) (UniProt P31689). Described as above.
Another experiment addresses GCN1 (human) (UniProt Q92616). The description is as above.
Another experiment concerns the target IPO4 (human) (UniProt Q8TEX9). The description is as above.
The target of a further experiment is SLC25A4 (human) (UniProt P12235). Described as above.
The target of a further experiment is TGM3 (human) (UniProt Q08188). The experiment is described as above.
The target of the next experiment is RPL13A (human) (UniProt P40429). The experiment is described as above.
In a further experiment the target is CANX (human) (UniProt P27824). Described as above.

Chain of ERLIN1 (human) (O75477 whole entry): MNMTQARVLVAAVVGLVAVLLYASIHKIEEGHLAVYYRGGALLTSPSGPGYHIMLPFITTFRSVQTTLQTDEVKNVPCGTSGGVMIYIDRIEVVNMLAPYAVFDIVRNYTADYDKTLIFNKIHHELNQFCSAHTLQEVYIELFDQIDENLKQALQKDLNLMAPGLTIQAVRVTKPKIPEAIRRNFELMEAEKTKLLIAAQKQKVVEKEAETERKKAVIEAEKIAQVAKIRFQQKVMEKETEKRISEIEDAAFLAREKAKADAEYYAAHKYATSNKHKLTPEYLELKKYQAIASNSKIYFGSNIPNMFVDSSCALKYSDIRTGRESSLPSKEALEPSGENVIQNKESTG
Chain of TCP1 (human) (P17987 whole entry): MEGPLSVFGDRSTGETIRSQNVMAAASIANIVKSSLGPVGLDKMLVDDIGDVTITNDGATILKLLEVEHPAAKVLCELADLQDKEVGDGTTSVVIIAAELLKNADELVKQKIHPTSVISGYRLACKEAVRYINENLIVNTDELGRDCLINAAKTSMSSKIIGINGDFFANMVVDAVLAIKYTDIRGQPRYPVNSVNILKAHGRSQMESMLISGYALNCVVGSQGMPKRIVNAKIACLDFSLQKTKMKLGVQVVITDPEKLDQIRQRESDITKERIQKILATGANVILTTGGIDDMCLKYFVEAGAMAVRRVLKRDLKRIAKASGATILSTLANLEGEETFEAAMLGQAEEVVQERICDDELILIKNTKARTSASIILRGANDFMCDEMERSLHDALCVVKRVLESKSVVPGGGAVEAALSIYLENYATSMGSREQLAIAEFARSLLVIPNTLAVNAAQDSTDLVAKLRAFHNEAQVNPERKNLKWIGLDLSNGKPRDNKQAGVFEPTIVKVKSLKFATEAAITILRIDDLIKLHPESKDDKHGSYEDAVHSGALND
Chain of CPSF6 (human) (Q16630 other isoform, or with tags, fused parts or gaps limits assumed): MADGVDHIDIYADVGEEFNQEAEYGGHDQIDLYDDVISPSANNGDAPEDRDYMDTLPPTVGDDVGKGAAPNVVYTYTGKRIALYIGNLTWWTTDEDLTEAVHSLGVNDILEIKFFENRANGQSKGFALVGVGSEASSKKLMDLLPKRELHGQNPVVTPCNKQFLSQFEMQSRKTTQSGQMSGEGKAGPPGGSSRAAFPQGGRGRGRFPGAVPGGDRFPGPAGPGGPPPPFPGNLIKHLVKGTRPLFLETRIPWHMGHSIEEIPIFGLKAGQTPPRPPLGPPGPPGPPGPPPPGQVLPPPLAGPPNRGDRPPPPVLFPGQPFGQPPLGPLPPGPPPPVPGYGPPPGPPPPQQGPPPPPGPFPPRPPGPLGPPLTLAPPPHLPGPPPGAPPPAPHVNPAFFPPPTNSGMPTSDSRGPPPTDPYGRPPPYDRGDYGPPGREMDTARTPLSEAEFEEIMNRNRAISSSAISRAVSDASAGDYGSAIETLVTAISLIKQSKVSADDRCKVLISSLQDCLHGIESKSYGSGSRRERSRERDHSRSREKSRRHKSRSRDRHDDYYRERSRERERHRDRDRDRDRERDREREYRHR
Chain of VIM (human) (P08670 2-466 limits assumed): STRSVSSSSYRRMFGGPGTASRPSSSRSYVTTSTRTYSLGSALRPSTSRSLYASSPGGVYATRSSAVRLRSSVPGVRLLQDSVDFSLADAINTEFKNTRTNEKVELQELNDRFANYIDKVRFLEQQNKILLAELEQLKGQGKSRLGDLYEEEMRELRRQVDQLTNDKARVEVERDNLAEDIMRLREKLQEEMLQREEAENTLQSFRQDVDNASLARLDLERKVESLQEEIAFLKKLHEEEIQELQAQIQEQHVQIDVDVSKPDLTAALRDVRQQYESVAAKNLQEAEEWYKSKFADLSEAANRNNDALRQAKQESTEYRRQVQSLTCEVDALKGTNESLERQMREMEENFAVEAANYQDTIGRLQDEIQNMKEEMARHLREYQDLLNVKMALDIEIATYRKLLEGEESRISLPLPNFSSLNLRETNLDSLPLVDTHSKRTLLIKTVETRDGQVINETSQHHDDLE
Chain of MAGED2 (human) (Q9UNF1 2-606 limits assumed): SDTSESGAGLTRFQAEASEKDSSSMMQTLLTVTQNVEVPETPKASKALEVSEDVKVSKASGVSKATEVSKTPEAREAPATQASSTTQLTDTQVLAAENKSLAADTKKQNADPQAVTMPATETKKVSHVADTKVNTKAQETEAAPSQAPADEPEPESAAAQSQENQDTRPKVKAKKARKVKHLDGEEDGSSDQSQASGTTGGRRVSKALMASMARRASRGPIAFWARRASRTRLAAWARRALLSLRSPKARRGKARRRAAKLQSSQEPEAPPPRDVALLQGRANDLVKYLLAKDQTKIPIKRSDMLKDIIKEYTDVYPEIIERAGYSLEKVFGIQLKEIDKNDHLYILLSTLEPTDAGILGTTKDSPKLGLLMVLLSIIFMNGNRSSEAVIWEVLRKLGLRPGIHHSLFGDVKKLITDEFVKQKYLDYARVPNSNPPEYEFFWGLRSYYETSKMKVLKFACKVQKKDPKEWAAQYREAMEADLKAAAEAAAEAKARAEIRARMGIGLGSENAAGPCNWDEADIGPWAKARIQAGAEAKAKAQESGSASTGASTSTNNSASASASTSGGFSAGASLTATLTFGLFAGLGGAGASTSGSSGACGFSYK
Chain of PDIA6 (human) (Q15084 20-440 limits assumed): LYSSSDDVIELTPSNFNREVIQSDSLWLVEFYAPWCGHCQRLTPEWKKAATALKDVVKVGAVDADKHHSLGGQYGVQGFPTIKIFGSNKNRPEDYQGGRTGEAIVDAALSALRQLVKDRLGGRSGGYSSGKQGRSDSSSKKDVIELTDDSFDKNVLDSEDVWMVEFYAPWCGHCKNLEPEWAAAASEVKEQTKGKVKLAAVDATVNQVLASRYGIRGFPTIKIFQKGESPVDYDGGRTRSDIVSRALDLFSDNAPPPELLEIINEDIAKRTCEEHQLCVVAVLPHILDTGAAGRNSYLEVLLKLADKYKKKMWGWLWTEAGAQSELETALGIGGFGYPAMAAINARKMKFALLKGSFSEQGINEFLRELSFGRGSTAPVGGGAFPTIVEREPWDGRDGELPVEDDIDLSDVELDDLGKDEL
Chain of TGM3 (human) (Q08188 2-693 limits assumed): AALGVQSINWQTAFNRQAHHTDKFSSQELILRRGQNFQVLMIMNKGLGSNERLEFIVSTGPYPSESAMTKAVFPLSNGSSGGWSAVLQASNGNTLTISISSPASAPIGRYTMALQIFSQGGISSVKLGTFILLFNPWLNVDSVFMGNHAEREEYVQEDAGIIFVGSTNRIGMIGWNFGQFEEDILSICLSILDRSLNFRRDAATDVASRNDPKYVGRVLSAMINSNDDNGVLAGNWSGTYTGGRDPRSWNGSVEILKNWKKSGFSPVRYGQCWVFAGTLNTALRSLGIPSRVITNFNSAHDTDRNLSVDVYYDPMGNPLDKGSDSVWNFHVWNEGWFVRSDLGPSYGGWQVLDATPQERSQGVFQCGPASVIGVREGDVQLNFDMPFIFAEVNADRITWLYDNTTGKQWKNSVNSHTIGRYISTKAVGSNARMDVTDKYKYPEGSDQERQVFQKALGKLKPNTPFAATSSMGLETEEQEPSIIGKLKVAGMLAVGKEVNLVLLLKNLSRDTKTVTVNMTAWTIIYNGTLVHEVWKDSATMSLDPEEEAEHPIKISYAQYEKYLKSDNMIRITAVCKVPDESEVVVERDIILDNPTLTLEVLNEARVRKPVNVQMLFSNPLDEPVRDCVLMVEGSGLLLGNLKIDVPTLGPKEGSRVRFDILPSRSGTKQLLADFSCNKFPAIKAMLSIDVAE
Chain of UQCRC2 (human) (P22695 15-453 limits assumed): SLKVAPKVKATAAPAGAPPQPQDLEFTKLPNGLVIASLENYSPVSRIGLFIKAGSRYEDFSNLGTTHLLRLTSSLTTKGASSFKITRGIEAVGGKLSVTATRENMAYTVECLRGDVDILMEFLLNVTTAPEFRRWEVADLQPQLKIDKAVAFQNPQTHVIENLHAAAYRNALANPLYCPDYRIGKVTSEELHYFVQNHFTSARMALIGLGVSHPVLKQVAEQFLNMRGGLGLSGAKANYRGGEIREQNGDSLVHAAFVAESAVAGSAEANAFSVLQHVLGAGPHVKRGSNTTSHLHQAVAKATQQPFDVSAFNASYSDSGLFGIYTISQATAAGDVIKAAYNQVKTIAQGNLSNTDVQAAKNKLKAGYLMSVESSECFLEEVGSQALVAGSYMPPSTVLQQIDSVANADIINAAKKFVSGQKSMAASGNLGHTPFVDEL
Chain of TAF15 (human) (Q92804 other isoform, or with tags, fused parts or gaps limits assumed): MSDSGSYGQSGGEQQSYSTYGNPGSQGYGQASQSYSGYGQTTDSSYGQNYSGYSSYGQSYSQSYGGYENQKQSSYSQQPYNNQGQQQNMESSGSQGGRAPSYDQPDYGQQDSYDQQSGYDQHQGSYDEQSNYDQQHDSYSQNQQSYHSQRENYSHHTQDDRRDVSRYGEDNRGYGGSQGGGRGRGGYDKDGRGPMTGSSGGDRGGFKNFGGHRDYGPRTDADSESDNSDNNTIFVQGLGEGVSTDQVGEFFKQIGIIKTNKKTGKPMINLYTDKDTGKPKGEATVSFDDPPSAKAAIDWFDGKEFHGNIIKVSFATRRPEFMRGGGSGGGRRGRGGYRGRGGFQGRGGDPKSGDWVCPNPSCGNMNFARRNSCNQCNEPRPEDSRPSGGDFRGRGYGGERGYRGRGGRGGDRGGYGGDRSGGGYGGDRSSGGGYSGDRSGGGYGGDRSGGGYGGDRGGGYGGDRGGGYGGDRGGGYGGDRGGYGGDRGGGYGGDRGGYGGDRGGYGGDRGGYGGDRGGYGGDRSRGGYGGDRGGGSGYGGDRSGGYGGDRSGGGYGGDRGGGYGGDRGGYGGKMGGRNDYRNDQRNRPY
Chain of CALU (human) (O43852 20-315 limits assumed): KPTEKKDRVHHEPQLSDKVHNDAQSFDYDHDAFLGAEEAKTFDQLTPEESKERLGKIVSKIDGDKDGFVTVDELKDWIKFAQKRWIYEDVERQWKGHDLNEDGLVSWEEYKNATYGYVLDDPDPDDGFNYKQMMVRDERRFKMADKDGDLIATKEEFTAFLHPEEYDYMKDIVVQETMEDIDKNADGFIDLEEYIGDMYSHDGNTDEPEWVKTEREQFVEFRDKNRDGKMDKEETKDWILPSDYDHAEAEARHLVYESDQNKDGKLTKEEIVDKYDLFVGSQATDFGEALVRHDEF

In the case of “IgG control (Millipore Sigma 12-371) (antibody)”, the co-IP mass spectrometry count (N-term IgG) was 6 with CAPRIN1 (human); 0 with TIMP3 (human); 0 with SUPT16H (human); 28 with CPSF6 (human); 0 in the experiment with CASC3 (human); 0 with TCP1 (human). Also, the co-IP mass spectrometry count (N-term IgG) is 10 in the experiment with TAF15 (human); 0 with SRP14 (human); 10 in the experiment with KHDRBS1 (human); 452 with VIM (human); 37 in the experiment with PABPC1 (human); 0 with TFAM (human). In addition, in the experiment with MAGED2 (human), the co-IP mass spectrometry count (N-term IgG) was 0.
Take “N-terminal FLAG tagged B3GNT2 (from UniProt Q9NY97 1-397) (enzyme)”: the co-IP mass spectrometry count with CASP14 (human) came out at 8; with ERLIN1 (human), 11; in the experiment with PCBP1 (human), 4; with CALU (human) it was 10; with CAPZA1 (human) it was 2; in the experiment with PDIA6 (human) it was 5. Moreover, the co-IP mass spectrometry count with SQSTM1 (human) stood at 3; in the experiment with LRP1 (human), 2; with RPS12 (human), 3; with TUBB (human), 164; with FAM3C (human), 2; with RCN2 (human), 7. The co-IP mass spectrometry count was 9 in the experiment with RPL12 (human); 8 in the experiment with ERLIN2 (human); 13 with UQCRC2 (human); 6 with RPLPO (human); 11 with ATP1A1 (human); 8 with RPS7 (human). Also, the co-IP mass spectrometry count with DNAJA1 (human) was 6; in the experiment with GCN1 (human) it was 14; in the experiment with IPO4 (human) it was 3; in the experiment with SLC25A4 (human), 9; in the experiment with TGM3 (human), 9; in the experiment with RPL13A (human), 4. This substance also came in with a co-IP mass spectrometry count with CANX (human) of 6.

The values above are taken from patent US20240261333A1, “NOVEL TARGETS FOR ENHANCING ANTI-TUMOR IMMUNITY” (THE BROAD INSTITUTE, INC., priority 2021, published 2024).
